Drawing on the supplement of paper PMC9732359, this text covers protein stability index for 37 sequences.

A short description of this data set: protein stability index of a GFP-peptide fusion (yeast GPS) (PSI 1-4); higher = more stable; sorted into four equal gates, so the index is relative within each strain. A digest of the protocol:
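For each peptide, the protein stability index sums the read frequency in every gate after multiplying it by the gate number. Read frequencies came from plasmids that were PCR-amplified from each gate and Illumina-sequenced, with reads assigned to strains by barcodes. The gates were four equal bins of GFP/Cherry fluorescence ratio applied to mid-log yeast in leucine-free medium carrying a pooled library of tiled 17-residue yeast protein peptides fused downstream of GFP on a Cherry-expressing plasmid.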

± gives the uncertainty stated by the source.

With EGNQGSLQEDVSFDFNG [MED8], the protein stability index runs as follows: (doa10∆) 3.17 ± 0.12; (pdr5∆) 3.41 ± 0.085; (san1∆) 3.23 ± 0.062; (ubr1∆) 3.2 ± 0.07.
For WLEEYHPKLIKNKSGKI [FAS1] the same measures were 1.59 ± 0.12, 1.83 ± 0.075, 1.42 ± 0.092 and 1.67 ± 0.046.
The corresponding values for EDITEPKPDKPSGRTRG [ESC2] are 3.07 ± 0.15, 2.96 ± 0.14, 3.07 ± 0.11 and 3.26 ± 0.1.
Turning to LPNEMSQNDGFVIIRGS [RPO31], the protein stability index came to 3.07 ± 0.19 (doa10∆), 3.13 ± 0.16 (pdr5∆) and 3.23 ± 0.18 (san1∆).
MNEMCKKINAKEKLIGW [RPN8]: the protein stability index was 2.86 ± 0.043 (doa10∆), 3.13 ± 0.056 (pdr5∆), 3.03 ± 0.046 (san1∆) and 3.08 ± 0.031 (ubr1∆).
For AGLTRSDRSLSEDLFAD [BRR2], the protein stability index by setting is: (doa10∆) 3.04 ± 0.26; (san1∆) 3.56 ± 0.2.
As to NVSNTFNKTTNIDINNE [YJL041W/NSP1], the protein stability index is, setting by setting: (doa10∆) 3.1 ± 0.068; (pdr5∆) 3.28 ± 0.065; (san1∆) 2.68 ± 0.073; (ubr1∆) 3.08 ± 0.051.
For YYGLVIDLLLLGQERAT [PRP8] the same measures were 1.76 ± 0.083, 1.26 ± 0.053, 1.23 ± 0.11 and 1.38 ± 0.039.
Take DLSRIMDWLDNWGRKEH [ITC1]: the protein stability index was determined as 3.31 ± 0.2 (doa10∆), 3.33 ± 0.26 (pdr5∆) and 3.48 ± 0.14 (san1∆).
As for DRCVDPEDPYFNTLVRI [DIS3], the protein stability index runs as follows: (doa10∆) 3.39 ± 0.11; (pdr5∆) 3.41 ± 0.11; (san1∆) 3.48 ± 0.058; (ubr1∆) 3.4 ± 0.048.
AGGGSNKSSVRPTGGAN [MED6]: the protein stability index by setting is: (doa10∆) 2.93 ± 0.09; (pdr5∆) 3.12 ± 0.1; (san1∆) 2.79 ± 0.096; (ubr1∆) 3.11 ± 0.077.
As for GLIYSFNEENGEDSTKP [POP1], the protein stability index is, setting by setting: (doa10∆) 3.25 ± 0.098; (pdr5∆) 3.21 ± 0.18; (san1∆) 2.86 ± 0.26; (ubr1∆) 3.1 ± 0.17.
The corresponding values for AYEEEEENEDNDGNNRT [NUT1] are 3.25 ± 0.12, 3.37 ± 0.11, 3.47 ± 0.15 and 3.46 ± 0.068.
Turning to VSKFYDKINQLSVVKYL [RPN9], the protein stability index (doa10∆) was 2.25 ± 0.12, the protein stability index (pdr5∆) is 1.75 ± 0.083, the protein stability index (san1∆) was determined as 1.31 ± 0.11 and the protein stability index (ubr1∆) is 1.7 ± 0.083.
The corresponding values for IEFEYDPWNKLKHTDYW [RPB3] are 2.85 ± 0.1, 2.69 ± 0.17, 2.81 ± 0.089 and 3.06 ± 0.089.
The corresponding values for VKVLAATNRVDVLDPAL [RPT5] are 3.08 ± 0.099, 2.84 ± 0.1, 3.02 ± 0.075 and 2.89 ± 0.071.
Regarding TIVGVKFNNGVVIAADT [PUP1], the protein stability index turned out to be 1.43 ± 0.072 (doa10∆), 2.55 ± 0.14 (pdr5∆) and 2.55 ± 0.17 (ubr1∆).
For GILDEIMFNHARIIRSE [RGR1], the protein stability index runs as follows: (doa10∆) 2.75 ± 0.061; (pdr5∆) 2.98 ± 0.071; (san1∆) 3.08 ± 0.069; (ubr1∆) 3.07 ± 0.032.
For ISKQKSKLDYIFKDKEK [SMC1] the same measures were 2.78 ± 0.14, 2.71 ± 0.12, 2.89 ± 0.15 and 3.29 ± 0.091.
For LELGSCFSQENIEEMAR [SIN4] the same measures were 2.02 ± 0.06, 2.21 ± 0.073, 2.64 ± 0.078 and 2.64 ± 0.073.
Take TRLVQLREFRITHNTNI [GRR1]: the protein stability index was found to be 1.23 ± 0.11 (doa10∆), 1.16 ± 0.06 (pdr5∆), 1.04 ± 0.26 (san1∆) and 1.38 ± 0.09 (ubr1∆).
The corresponding values for NMKVTILHGSKSQEQRE [PRP28] are 3.42 ± 0.093, 3.31 ± 0.15, 3.25 ± 0.046 and 3.35 ± 0.06.
For YHSAGGRDKHALSLLYH [SSN3] the same measures were 3.12 ± 0.082, 3.02 ± 0.066, 3.19 ± 0.059 and 3.32 ± 0.066.
For QITLTFISELCSIEPIA [YML103C/NUP188] the same measures were 1.27 ± 0.035, 1.46 ± 0.052, 1.48 ± 0.085 and 1.82 ± 0.055.
Take SYYDNDLDETTQTFNGS [YML031W/NDC1]: the protein stability index (doa10∆) amounted to 2.77 ± 0.043, the protein stability index (pdr5∆) was 2.78 ± 0.033, the protein stability index (san1∆) was 2.66 ± 0.038 and the protein stability index (ubr1∆) came out at 2.81 ± 0.033.
For the sequence DNTARVIFDASIKDTQN [BRN1], the protein stability index reads like this: (doa10∆) 2.1 ± 0.078; (pdr5∆) 2.06 ± 0.064; (san1∆) 2.42 ± 0.1; (ubr1∆) 2.68 ± 0.048.
With KETAPVIDTLAAGYGKI [RPL28], the protein stability index was 1.96 ± 0.088 (doa10∆), 2.71 ± 0.12 (pdr5∆), 2.13 ± 0.21 (san1∆) and 2.53 ± 0.083 (ubr1∆).
The corresponding values for QDVAAKCKEVGITAVHV [RPS14B] are 2.44 ± 0.059, 2.7 ± 0.068, 2.8 ± 0.065 and 2.18 ± 0.037.
The corresponding values for DAMVTRTPVIISLRNNH [SMD2] are 1.61 ± 0.058, 1.85 ± 0.056, 1.43 ± 0.12 and 1.7 ± 0.073.
For the sequence KKLEITSDGALSVMCGC [RPR2], the protein stability index turned out to be 2.63 ± 0.047 (doa10∆), 2.82 ± 0.054 (pdr5∆), 2.8 ± 0.043 (san1∆) and 2.933 ± 0.029 (ubr1∆).
Sequence FSQKEMAFNLLGLLTPE [FAS2] displayed a protein stability index (doa10∆) of 2.52 ± 0.077, a protein stability index (pdr5∆) of 2.32 ± 0.072, a protein stability index (san1∆) of 2.18 ± 0.12 and a protein stability index (ubr1∆) of 2.42 ± 0.064.
Regarding FLQGESPFSITFSVYHE [YMR129W/POM152], the protein stability index reads like this: (doa10∆) 2.4 ± 0.073; (pdr5∆) 2.08 ± 0.056; (san1∆) 2.64 ± 0.047; (ubr1∆) 2.36 ± 0.052.
For FNKSAELSRIENEVENI [YCS4] the same measures were 3.51 ± 0.17, 3.4 ± 0.19, 3.27 ± 0.06 and 3.39 ± 0.17.
Consider LTYAQQQLNKQRQDFER [SNF6], for which the protein stability index is 2.49 ± 0.073 (doa10∆), 2.44 ± 0.071 (pdr5∆), 2.17 ± 0.083 (san1∆) and 2.6 ± 0.038 (ubr1∆).
For LNRFNFQNTNTRSALKL [QCR2] the same measures were 2.71 ± 0.076, 2.91 ± 0.069, 2.83 ± 0.075 and 2.62 ± 0.074.
For the sequence PRSDAQAIKEASYVNIP [RPS0A], the protein stability index by setting is: (doa10∆) 2.88 ± 0.058; (pdr5∆) 2.76 ± 0.048; (san1∆) 2.71 ± 0.058; (ubr1∆) 2.47 ± 0.034.
For FPTTSHESLVTTLLRKK [MED8] the same measures were 2.12 ± 0.12, 1.82 ± 0.12, 1.72 ± 0.14 and 1.95 ± 0.12.
